# Test results published in IntAct's records for PubMed 29039417.
# B1: BBSome complex member BBS1 (Homo sapiens), Q8NFJ9 (parent)
# chain: MAAASSSDSDACGAESNEANSKWLDAHYDPMANIHTFSACLALADLHGDGEYKLVVGDLGPGGQQPRLKVLKGPLVMTESPLPALPAAAATFLMEQHEPRTPALALASGPCVYVYKNLRPYFKFSLPQLPPNPLEQDLWNQAKEDRIDPLTLKEMLESIRETAEEPLSIQSLRFLQLELSEMEAFVNQHKSNSIKRQTVITTMTTLKKNLADEDAVSCLVLGTENKELLVLDPEAFTILAKMSLPSVPVFLEVSGQFDVEFRLAAACRNGNIYILRRDSKHPKYCIELSAQPVGLIRVHKVLVVGSTQDSLHGFTHKGKKLWTVQMPAAILTMNLLEQHSRGLQAVMAGLANGEVRIYRDKALLNVIHTPDAVTSLCFGRYGREDNTLIMTTRGGGLIIKILKRTAVFVEGGSEVGPPPAQAMKLNVPRKTRLYVDQTLREREAGTAMHRAFQTDLYLLRLRAARAYLQALESSLSPLSTTAREPLKLHAVVQGLGPTFKLTLHLQNTSTTRPVLGLLVCFLYNEALYSLPRAFFKVPLLVPGLNYPLETFVESLSNKGISDIIKVLVLREGQSAPLLSAHVNMPGSEGLAAA
# partner: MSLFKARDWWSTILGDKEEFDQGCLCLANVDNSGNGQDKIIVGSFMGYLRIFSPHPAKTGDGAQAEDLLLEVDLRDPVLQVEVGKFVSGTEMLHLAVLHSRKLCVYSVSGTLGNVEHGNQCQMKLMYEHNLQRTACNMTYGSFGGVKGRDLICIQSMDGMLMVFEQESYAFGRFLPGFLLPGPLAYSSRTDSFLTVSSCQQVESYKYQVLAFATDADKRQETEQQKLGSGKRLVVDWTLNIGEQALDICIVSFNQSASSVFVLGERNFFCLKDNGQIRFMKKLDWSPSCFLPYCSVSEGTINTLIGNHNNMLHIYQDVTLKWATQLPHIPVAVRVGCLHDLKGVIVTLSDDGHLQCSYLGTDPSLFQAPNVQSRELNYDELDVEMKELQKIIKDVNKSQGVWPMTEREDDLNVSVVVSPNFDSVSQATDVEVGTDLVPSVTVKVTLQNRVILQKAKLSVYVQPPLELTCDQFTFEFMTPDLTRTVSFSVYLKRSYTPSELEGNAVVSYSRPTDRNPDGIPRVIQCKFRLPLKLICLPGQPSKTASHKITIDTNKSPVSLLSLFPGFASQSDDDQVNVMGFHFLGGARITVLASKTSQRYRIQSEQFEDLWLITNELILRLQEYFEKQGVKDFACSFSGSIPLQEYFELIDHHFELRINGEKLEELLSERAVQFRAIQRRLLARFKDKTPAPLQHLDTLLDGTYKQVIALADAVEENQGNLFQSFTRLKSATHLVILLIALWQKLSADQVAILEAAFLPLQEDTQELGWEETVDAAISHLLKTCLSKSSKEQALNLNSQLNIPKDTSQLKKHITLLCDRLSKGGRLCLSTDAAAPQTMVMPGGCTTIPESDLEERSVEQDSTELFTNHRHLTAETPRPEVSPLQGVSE
# Variants of: B1
# Details: with pthb1_human BBS9, Q3SYG4
row,Variant,effect of a mutation on the interaction
1,MAAASSSDSDACGAESNEANSKWLDAHYDPMANIHTFSACLALADLHGDGEYKLVVGDLGPGGQQPRLKVLKGPLVMTESPLPALPAAAATFLMEQHEPRTPALALASGPCVYVYKNLRPYFKFSLPQLPPNPLEQDLWNQAKEDRIDPLTLKEMLESIRETAEEPLSIQSLRFLQLELSEMEAFVNQHKSNSIKRQTVITTMTTLKKNLADEDAVSCLVLGTENKELLVLDPEAFTILAKMSLPSVPVFLEVSGQFDVEFRLAAACRNGNIYILRRDSKHPKYCIELSAQPVGLIRVHKVLVVGSTQDSLHGFTHKGKKLWTVQMPAAILTMNLLEQHSRGLQAVMAGLANGEVRIYRDKALLNVIHTPDAVTSLCFGRYGREDNTLIMTTRGGGLIIKILKRTAVFVEGGSEVGPPPAQAMKLNVPRKTRLYVDQTLREREAGTAMHRAFQTDLYLLRLRAARAYLQALESSLSPLSTTAREPLKLHAVVQGLGPTFKLTLHLQNTSTTRPVLGLLVCFLYNEALYSLPRAFFKVPLLVPGLNYPLEEFVESLSNKGISDIIKVLVLREGQSAPLLSAHVNMPGSEGLAAA [T550E],with no effect
2,MAAASSSDSDACGAESNEANSKWLDAHYDPMANIHTFSACLALADLHGDGEYKLVVGDLGPGGQQPRLKVLKGPLVMTESPLPALPAAAATFLMEQHEPRTPALALASGPCVYVYKNLRPYFKFSLPQLPPNPLEQDLWNQAKEDRIDPLTLKEMLESIRETAEEPLSIQSLRFLQLELSEMEAFVNQHKSNSIKRQTVITTMTTLKKNLADEDAVSCLVLGTENKELLVLDPEAFTILAKMSLPSVPVFLEVSGQFDVEFRLAAACRNGNIYILRRDSKHPKYCIELSAQPVGLIRVHKVLVVGSTQDSLHGFTHKGKKLWTVQMPAAILTMNLLEQHSRGLQAVMAGLANGEVRIYRDKALLNVIHTPDAVTSLCFGRYGREDNTLIMTTRGGGLIIKILKRTAVFVEGGSEVGPPPAQAMKLNVPRKTRLYVDQTLREREAGTAMHRAFQTDLYLLRLRAARAYLQALESSLSPLSTTAREPLKLHAVVQGLGPTFKLTLHLQNTATTRPVLGLLVCFLYNEALYSLPRAFFKVPLLVPGLNYPLETFVESLSNKGISDIIKVLVLREGQSAPLLSAHVNMPGSEGLAAA [S509A],with no effect
3,MAAASSSDSDACGAESNEANSKWLDAHYDPMANIHTFSACLALADLHGDGEYKLVVGDLGPGGQQPRLKVLKGPLVMTESPLPALPAAAATFLMEQHEPRTPALALASGPCVYVYKNLRPYFKFSLPQLPPNPLEQDLWNQAKEDRIDPLTLKEMLESIRETAEEPLSIQSLRFLQLELSEMEAFVNQHKSNSIKRQTVITTMTTLKKNLADEDAVSCLVLGTENKELLVLDPEAFTILAKMSLPSVPVFLEVSGQFDVEFRLAAACRNGNIYILRRDSKHPKYCIELSAQPVGLIRVHKVLVVGSTQDSLHGFTHKGKKLWTVQMPAAILTMNLLEQHSRGLQAVMAGLANGEVRIYRDKALLNVIHTPDAVTSLCFGRYGREDNTLIMTTRGGGLIIKILKRTAVFVEGGSEVGPEPAQAMKLNVPRKTRLYVDQTLREREAGTAMHRAFQTDLYLLRLRAARAYLQALESSLSPLSTTAREPLKLHAVVQGLGPTFKLTLHLQNTSTTRPVLGLLVCFLYNEALYSLPRAFFKVPLLVPGLNYPLETFVESLSNKGISDIIKVLVLREGQSAPLLSAHVNMPGSEGLAAA [P418E],with no effect
4,MAAASSSDSDACGAESNEANSKWLDAHYDPMANIHTFSACLALADLHGDGEYKLVVGDLGPGGQQPRLKVLKGPLVMTESPLPALPAAAATFLMEQHEPRTPALALASGPCVYVYKNLRPYFKFSLPQLPPNPLEQDLWNQAKEDRIDPLTLKEMLESIRETAEEPLSIQSLRFLQLELSEMEAFVNQHKSNSIKRQTVITTMTTLKKNLADEDAVSCLVLGTENKELLVLDPEAFTILAKMSLPSVPVFLEVSGQFDVEFRLAAACRNGNIYILRRDSKHPKYCIELSAQPVGLIRVHKVLVVGSTQDSLHGFTHKGKKLWTVQMPAAILTMNLLEQHSRGLQAVMAGLANGEVRIYRDKALLNVIHTPDAVTSLCFGRYGREDNTLIMTTRGGGLIIKILKRTAVFVEGGSEVGPPPAEAMKLNVPRKTRLYVDQTLREREAGTAMHRAFQTDLYLLRLRAARAYLQALESSLSPLSTTAREPLKLHAVVQGLGPTFKLTLHLQNTSTTRPVLGLLVCFLYNEALYSLPRAFFKVPLLVPGLNYPLETFVESLSNKGISDIIKVLVLREGQSAPLLSAHVNMPGSEGLAAA [Q421E],with no effect
5,MAAASSSDSDACGAESNEANSKWLDAHYDPMANIHTFSACLALADLHGDGEYKLVVGDLGPGGQQPRLKVLKGPLVMTESPLPALPAAAATFLMEQHEPRTPALALASGPCVYVYKNLRPYFKFSLPQLPPNPLEQDLWNQAKEDRIDPLTLKEMLESIRETAEEPLSIQSLRFLQLELSEMEAFVNQHKSNSIKRQTVITTMTTLKKNLADEDAVSCLVLGTENKELLVLDPEAFTILAKMSLPSVPVFLEVSGQFDVEFRLAAACRNGNIYILRRDSKHPKYCIELSAQPVGLIRVHKVLVVGSTQDSLHGFTHKGKKLWTVQMPAAILTMNLLEQHSRGLQAVMAGLANGEVRIYRDKALLNVIHTPDAVTSLCFGRYGREDNTLIMTTRGGGLIIKILKRTAVFVEGGSEVGPPPAQAMKLNVPRKTRLYVDQTLREREAGTAMKRAFQTDLYLLRLRAARAYLQALESSLSPLSTTAREPLKLHAVVQGLGPTFKLTLHLQNTSTTRPVLGLLVCFLYNEALYSLPRAFFKVPLLVPGLNYPLETFVESLSNKGISDIIKVLVLREGQSAPLLSAHVNMPGSEGLAAA [H449K],with no effect
